Source: publication PMC2940942 (Journal of Molecular Biology, 2009)
Where two headings read alike, the source gives them in different places.

Tests used:
[1] = biological target: the molecule itself; experiment: SEC
[2] = biological target: T1, cyclophilin A (UniProt P62937 1-165); experiment: NMR titration
[3] = biological target: T1, cyclophilin A; experiment: NMR titration; remark: listed apart in the source

B1: CD147^22–269 (isoform 2 without the signal peptide) (receptor)
chain: AAGTVFTTVEDLGSKILLTCSLNDSATEVTGHRWLKGGVVLKEDALPGQKTEFKVDSDDQWGEYSCVFLPEPMGTANIQLHGPPRVKAVKSSEHINEGETAMLVCKSESVPPVTDWAWYKITDSEDKALMNGSESRFFVSSSQGRSELHIENLNMEADPGQYRCNGTSSKGSDQAIITLRVRSHLAALWPFLGIVAEVLVLVTIIFIYEKRRKPEDVLDDDDAGSAPLKSSGQHQNDKGKNVRQRNSS
[1]
  binding result: binds

## GSHLAALWPFLG [CD147^10mer peptide (CD147 residues 205–214)]
[2]
  Kd: 4.2 ± 0.2 mM

B2: CD147^22–214 (domain or fragment)
chain: AAGTVFTTVEDLGSKILLTCSLNDSATEVTGHRWLKGGVVLKEDALPGQKTEFKVDSDDQWGEYSCVFLPEPMGTANIQLHGPPRVKAVKSSEHINEGETAMLVCKSESVPPVTDWAWYKITDSEDKALMNGSESRFFVSSSQGRSELHIENLNMEADPGQYRCNGTSSKGSDQAIITLRVRSHLAALWPFLG
[3]
  Kd: > 1 mM
